Assay results reported in patent US20220406376A1 (MacroGenics, published 2022).
Numbering of substitutions follows the chain as printed.

B1: DART-B (bispecific antibody)
chain 1: not shown
chain 2: DIQMTQSPSSLSASVGDRVTITCRPSQDISNYLNWYQQKPDKTVKLLIYYTSRLRSGVPSRFSGSGSGTDFTFTISSLQPEDIATYFCQQGDTLPYTFGQGTKLEIKGGGSGGGGQVQLVQSGAEVKKPGASVKVSCKASGYTFTNYGMNWVRQAPGQGLEWMGWINTNIGEPTYTEEFKGRVTMTRDTSISTAYMELSRLRSDDTAVYYCARDDGYGNRVSYWGQGTLVTVSSGGCGGGKVAACKEKVAALKEKVAALKEKVAALKE
B2: hCD137 MAB-3 (1.1) (antibody, V domains shown)
VH: QVQLVQSGAEVKKPGASVKVSCKASGYTFTSYWINWVKQAPGQGLEWIGNIYPSDSYTNYNQKFKDKATITADKSTSTAYMELSSLRSEDTAVYYCTRDYGSSYSFDYWGQGTTVTVSS
VL: DIQMTQSPSSLSASVGDRVTITCRPSQDISNYLNWYQQKPDGTVKLLIYYTSRLRSGVPSRFSGSGSGTDFTFTISSLQPEDIATYFCQQGDTLPYTFGQGTKLEIK
notes: also called chCD137 MAB-3 (1.1)
B3: hCD137 MAB-3 (1.2) (antibody, V domains shown)
VH: B2 VH
VL: B2 VL with D41G
notes: also called chCD137 MAB-3 (1.2)
B4: hCD137 MAB-3 (1.3) (antibody, V domains shown)
VH: B2 VH
VL: B2 VL with G42K
notes: also called chCD137 MAB-3 (1.3)
B5: TRIDENT-B2 (bispecific antibody, human IgG1, kappa, L234A L235A)
chain 1: DIQMTQSPSSLSASVGDRVTITCRPSQDISNYLNWYQQKPDKTVKLLIYYTSRLRSGVPSRFSGSGSGTDFTFTISSLQPEDIATYFCQQGDTLPYTFGQGTKLEIKGGGSGGGGQVQLVQSGAEVKKPGASVKVSCKASGYTFTSYWINWVKQAPGQGLEWIGNIYPSDSYTNYNQKFKDKATITADKSTSTAYMELSSLRSEDTAVYYCTRDYGSAYSMSTWGQGTTVTVSSASTKGEVAACEKEVAALEKEVAALEKEVAALEKGGGDKTHTCPPCPAPEAAGGPSVFLFPPKPKDTLMISRTPEVTCVVVDVSHEDPEVKFNWYVDGVEVHNAKTKPREEQYNSTYRVVSVLTVLHQDWLNGKEYKCKVSNKALPAPIEKTISKAKGQPREPQVYTLPPSREEMTKNQVSLWCLVKGFYPSDIAVEWESNGQPENNYKTTPPVLDSDGSFFLYSKLTVDKSRWQQGNVFSCSVMHEALHNHYTQKSLSLSPGK
chain 2: DIQMTQSPSSLSASVGDRVTITCRPSQDISNYLNWYQQKPDKTVKLLIYYTSRLRSGVPSRFSGSGSGTDFTFTISSLQPEDIATYFCQQGDTLPYTFGQGTKLEIKGGGSGGGGQVQLVQSGAEVKKPGASVKVSCKASGYTFTSYWINWVKQAPGQGLEWIGNIYPSDSYTNYNQKFKDKATITADKSTSTAYMELSSLRSEDTAVYYCTRDYGSAYSMSTWGQGTTVTVSSASTKGKVAACKEKVAALKEKVAALKEKVAALKE
heavy: QVQLVQSGAEVKKPGASVKVSCKASGYTFTSFWMHWVRQAPGQGLEWMGRIDPNRGGTEYNEKAKSRVTMTADKSTSTAYMELSSLRSEDTAVYYCAGGNPYYPMDYWGQGTTVTVSSASTKGPSVFPLAPSSKSTSGGTAALGCLVKDYFPEPVTVSWNSGALTSGVHTFPAVLQSSGLYSLSSVVTVPSSSLGTQTYICNVNHKPSNTKVDKRVEPKSCDKTHTCPPCPAPEAAGGPSVFLFPPKPKDTLMISRTPEVTCVVVDVSHEDPEVKFNWYVDGVEVHNAKTKPREEQYNSTYRVVSVLTVLHQDWLNGKEYKCKVSNKALPAPIEKTISKAKGQPREPQVYTLPPSREEMTKNQVSLSCAVKGFYPSDIAVEWESNGQPENNYKTTPPVLDSDGSFFLVSKLTVDKSRWQQGNVFSCSVMHEALHNRYTQKSLSLSPGK
light: DIQMTQSPSSLSASVGDRVTITCRASQGISNYLAWFQQKPGKAPKSLIYRANRLQSGVPSRFSGSGSGTDFTLTISSLQPEDVATYYCLQYDDFPWTFGQGTKLEIKRTVAAPSVFIFPPSDEQLKSGTASVVCLLNNFYPREAKVQWKVDNALQSGNSQESVTEQDSKDSTYSLSSTLTLSKADYEKHKVYACEVTHQGLSSPVTKSFNRGEC
B6: TRIDENT-B5 (bispecific antibody, human IgG1, kappa, L234A L235A)
chain 1: B5 chain 1 with R24Q, P25A, S52G, L54A, K153R
chain 2: B5 chain 2 with R24Q, P25A, S52G, L54A, K153R
heavy: B5 heavy
light: B5 light
notes: also called TRIDENT-BS
B7: TRIDENT-3 (other)
chain 1: DIQMTQSPSTLSASVGDRVTITCRASQSVGYMHWYQQKPGKAPKLLIYDTSKLASGVPSRFSGSGSGTEFTLTISSLQPDDFATYYCFQGSGYPFTFGGGTKLEIKGGGSGGGGEVKLDETGGGLVQPGRPMKLSCVASGFTFSDYWMNWVRQSPEKGLEWVAQIRNKPYNYETYYSDSVKGRFTISRDDSKSSVYLQMNNLRVEDMGIYYCTGSYYGMDYWGQGTSVTVSSASTKGEVAACEKEVAALEKEVAALEKEVAALEKGGGDKTHTCPPCPAPEAAGGPSVFLFPPKPKDTLMISRTPEVTCVVVDVSHEDPEVKFNWYVDGVEVHNAKTKPREEQYNSTYRVVSVLTVLHQDWLNGKEYKCKVSNKALPAPIEKTISKAKGQPREPQVYTLPPSREEMTKNQVSLWCLVKGFYPSDIAVEWESNGQPENNYKTTPPVLDSDGSFFLYSKLTVDKSRWQQGNVFSCSVMHEALHNHYTQKSLSLSPGK
chain 2: DVVMTQTPFSLPVSLGDQASISCRSSQSLVHSNGNTYLRWYLQKPGQSPKVLIYKVSNRFSGVPDRFSGSGSGTDFTLKISRVEAEDLGVYFCSQSTHVPWTFGGGTKLEIKGGGSGGGGQVTLRESGPALVKPTQTLTLTCTFSGFSLSTSGMSVGWIRQPPGKALEWLADIWWDDKKDYNPSLKSRLTISKDTSKNQVVLKVTNMDPADTATYYCARSMITNWYFDVWGAGTTVTVSSASTKGKVAACKEKVAALKEKVAALKEKVAALKE
heavy: B5 heavy
light: B5 light

Columns and labels:
[1] = biological target: T1, extracellular portion of human HER2 fused to a histidine-containing peptide (human, UniProt P04626 23-652); assay: SPR (BIACORE), essentially as for Table 8
T1 construct: extracellular domain; also called huHER2; Human HER2/neu
Text: The humanized variants were selected to have improved binding affinity as compared to the parental murine antibody and as described may be further engineered to eliminate sequence liabilities (e.g., isomerization, deamidation sites) as described above. The binding affinity of several combinations of humanized VH and VL domains was examined by BIACORE®. Thus, an extracellular portion of human HER2 fused to a histidine-containing peptide (“huHER2”) was passed over a surface coated with immobilized antibody. Briefly, each test molecule was captured onto an F(ab)₂ goat-anti-human Fc-coated surface and then incubated in the presence of different concentrations (6.25 nM-50 nM) of huHER2. The kinetics of binding were determined via BIACORE® analysis binding (normalized 1:1 Langmuir binding model).
In a separate study, the binding kinetics of the CD137×TA bispecific diabody, DART-B (described above), were determined for binding to human HER2 and cynomolgus monkey HER2, essentially as described above.

[2] = biological target: T2, CD137 on the surface of cells (activated human T cells; engineered CHO cells) (human, UniProt Q07011 24-255); assay: flow cytometry on activated CD8+ T cells (CD8 FITC), anti-hFc APC MFI
T2 construct: whole, on cells; also called human CD137; cell surface expressed CD137

[3] = biological target: T3, HER2/neu on the surface of target cells (N87, JIMT-1, MCF-7, MDA-MB231) (UniProt P04626 23-1255, limits assumed); assay: flow cytometry on JIMT-1 cells, anti-hFc APC MFI
T3 construct: whole, on cells
In short: (§1)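 N87 or JIMT-1 cells were incubated 45 min at RT with serially diluted (5- or 10-fold) bispecific diabodies. Bound molecules were detected with APC-labelled anti-human Fc (30 min, RT), and APC MFI was read by flow cytometry.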

[4] = biological target: T3, HER2/neu on the surface of target cells …; assay: flow cytometry on N87 gastric cancer cells, anti-hFc APC MFI
[5] = biological target: T2, CD137 on the surface of cells …; assay: flow cytometry on activated pan T cells gated CD8, anti-hFc APC MFI
[6] = biological target: T3, HER2/neu on the surface of target cells …; assay: flow cytometry on N87 cells, anti-hFc APC MFI
In short: as §1

[7] = biological target: T2, CD137 on the surface of cells …; assay: flow cytometry on CD137-expressing CHO cells (CHO/137), anti-hFc APC MFI
[8] = biological target: T4, extracellular portion of human CD137 fused to a histidine-containing peptide (human, UniProt Q07011 24-186); assay: SPR (BIACORE), against chCD137 MAB-3
T4 construct: extracellular domain; also called huCD137; His-tagged soluble human CD137
Procedure: (§2) Thus, an extracellular portion of human CD137 fused to a histidine-containing peptide (“huCD137”) was passed over a surface coated with immobilized antibody. Briefly, each test molecule was captured onto an F(ab)₂ goat-anti-human Fc-coated surface and then incubated in the presence of different concentrations (25 nM and 100 nM) of huCD137. The kinetics of binding were determined via BIACORE® analysis binding (normalized 1:1 Langmuir binding model).

[9] = biological target: T4, extracellular portion of human CD137 …; assay: SPR (BIACORE); antibody captured on anti-human Fc; huCD137 25 and 100 nM; 1:1 Langmuir
Procedure: as §2

[10] = biological target: T5, 5T4 on the surface of target cells (JIMT-1, SKOV-3) (UniProt Q13641 32-420, limits assumed); assay: flow cytometry on SKOV-3 (5T4 lo) cells, anti-hFc APC MFI
T5 construct: whole, on cells
T5 sequence (looked up): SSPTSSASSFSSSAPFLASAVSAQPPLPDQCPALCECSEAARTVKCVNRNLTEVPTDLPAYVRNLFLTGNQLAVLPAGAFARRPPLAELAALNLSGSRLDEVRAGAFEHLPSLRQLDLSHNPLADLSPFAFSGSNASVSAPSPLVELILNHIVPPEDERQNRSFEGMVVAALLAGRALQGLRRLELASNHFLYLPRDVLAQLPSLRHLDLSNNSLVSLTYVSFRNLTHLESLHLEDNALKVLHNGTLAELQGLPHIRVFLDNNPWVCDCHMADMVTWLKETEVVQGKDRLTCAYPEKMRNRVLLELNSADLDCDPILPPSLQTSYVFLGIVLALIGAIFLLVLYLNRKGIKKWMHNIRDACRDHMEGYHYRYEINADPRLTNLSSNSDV

[11] = biological target: T2, CD137 on the surface of cells …; assay: flow cytometry on activated CD8+ T cells (donor D59788, CD8 FITC), anti-hFc APC MFI
[12] = biological target: T5, 5T4 on the surface of target cells …; assay: flow cytometry on JIMT-1 (5T4 hi) cells, anti-hFc APC MFI

T2 sequence (Q07011 24-255, change not shown): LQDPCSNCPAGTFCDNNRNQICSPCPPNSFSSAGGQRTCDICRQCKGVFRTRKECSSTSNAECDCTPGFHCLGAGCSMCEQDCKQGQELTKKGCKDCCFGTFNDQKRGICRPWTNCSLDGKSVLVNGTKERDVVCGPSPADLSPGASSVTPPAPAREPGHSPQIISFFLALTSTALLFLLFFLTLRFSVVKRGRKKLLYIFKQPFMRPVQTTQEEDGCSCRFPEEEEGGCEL

Row | Binder | fold decrease in binding affinity relative to the murine antibodies [8] | Kd [9] | koff [9] | kon [9] | EC50 (read off the curve) [10] | EC50 (read off the curve) [12] | other results
1 | B1 |  |  |  |  |  |  | Kd [1]: 0.38 nM; koff [1]: 0.000182 s⁻¹; kon [1]: 480000 M⁻¹ s⁻¹; EC50 (read off the curve) [2]: ~0.02 µg/mL; EC50 (read off the curve) [3]: ~0.03 µg/mL; EC50 (read off the curve) [4]: ~0.5 nM; EC50 (read off the curve) [5]: ~0.1 nM; EC50 (read off the curve) [6]: ~0.06 µg/mL; EC50 (read off the curve) [7]: ~0.01 µg/mL
2 | B2 | ~2 fold | 46 nM | 0.031 s⁻¹ | 670000 M⁻¹ s⁻¹ |  |  | 
3 | B3 | ~2 fold | 49 nM | 0.03 s⁻¹ | 610000 M⁻¹ s⁻¹ |  |  | 
4 | B4 | ~2 fold | 50 nM | 0.033 s⁻¹ | 660000 M⁻¹ s⁻¹ |  |  | 
5 | B5 |  |  |  |  | ~0.04 µg/mL | ~0.08 µg/mL | EC50 (read off the curve) [11]: ~0.007 µg/mL
6 | B6 |  |  |  |  | ~0.04 µg/mL | ~0.08 µg/mL | EC50 (read off the curve) [11]: ~0.007 µg/mL
7 | B7 |  |  |  |  | ~0.04 µg/mL | ~0.08 µg/mL | 
